Measurements taken from paper PMC9329571, “Regulation of TIA-1 Condensates: Zn2+ and RGG Motifs Promote Nucleic Acid Driven LLPS and Inhibit Irreversible Aggregation”.

Tests used:
TIA-1 RRM2,3 = molecular target: T1, TIA-1 RRM2,3 (UniProt P31483-2 93-274); assay: fluorescence anisotropy; 12 mM arginine; FA: 10 mM HEPES pH 7.2, 50 mM NaCl, 12 mM arginine (further 1 mM component truncated in the text); temperature not stated; KD from two independent measurements.; conditions: protein: recombinant; tags: 6xHis removed with thrombin; label: 5'-fluorescein; single strand
T1 sequence: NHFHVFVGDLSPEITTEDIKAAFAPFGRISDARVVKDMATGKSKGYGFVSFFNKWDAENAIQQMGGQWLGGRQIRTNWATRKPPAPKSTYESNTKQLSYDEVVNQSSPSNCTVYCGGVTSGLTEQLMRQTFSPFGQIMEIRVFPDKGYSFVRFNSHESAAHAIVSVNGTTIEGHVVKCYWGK

[1] = molecular target: FUS-RBD (RGG1-RRM-RGG2-ZnF-RGG3) (UniProt P35637 242-526); assay: as above; conditions: protein: recombinant; tags: N-terminal GB1-6xHis; label: 5'-fluorescein; single strand
FUS-RBD (RGG1-RRM-RGG2-ZnF-RGG3), sequence (P35637 242-526): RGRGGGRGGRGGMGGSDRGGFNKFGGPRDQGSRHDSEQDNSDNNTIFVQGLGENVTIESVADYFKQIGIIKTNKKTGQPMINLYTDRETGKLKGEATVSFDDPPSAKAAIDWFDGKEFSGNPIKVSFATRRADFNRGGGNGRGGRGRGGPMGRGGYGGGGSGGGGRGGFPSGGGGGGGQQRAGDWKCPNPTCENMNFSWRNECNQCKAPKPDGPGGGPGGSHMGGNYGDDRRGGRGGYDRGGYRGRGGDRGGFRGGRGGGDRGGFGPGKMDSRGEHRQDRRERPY

Binder: TTTTTACTCC (ssDNA) [TC1]
- Kd (TIA-1 RRM2,3): 2 nM
- Kd [1]: 30 nM
